Substitutions are numbered along the chain they refer to.
B1: Protein complex of CD3-binding antibody variable region 3-Fc x PD-L1 antibody (bispecific antibody)
scFv-Fc: EVQLVESGGGLVQPGGSLRLSCAASGFSFTGYTMNWVRQAPGKCLEWVALINPYKGVTTYADSVKGRFTISRDNSKNTLYLQMNSLRAEDTAVYYCARSGYYGDSDWYFDVWGQGTLVTVSSGGGGSGGGGSGGGGSDIQMTQSPSSLSASVGDRVTITCRASQDIRNYLNWYQQKPGKAPKLLIYYTSSLESGVPSRFSGSGSGTDYTLTISSLQPEDFATYYCQQGNTLPWTFGCGTKVEIKRTEPKSSDKTHTCPPCPAPEAAGGPSVFLFPPKPKDTLMISRTPEVTCVVVDVSHEDPEVKFNWYVDGVEVHNAKTKPREEQYNSTYRVVSVLTVLHQDWLNGKEYKCKVSNKALPAPIEKTISKAKGQPREPQVYTGPPSRDELTKNQVSLSCAVKGFYPSDIAVEWESNGQPENNYKTTPPVLDSDGSFFLVSKLTVDKSRWQQGNVFSCSVMHEALHNHYTQKSLSLSPGK
heavy: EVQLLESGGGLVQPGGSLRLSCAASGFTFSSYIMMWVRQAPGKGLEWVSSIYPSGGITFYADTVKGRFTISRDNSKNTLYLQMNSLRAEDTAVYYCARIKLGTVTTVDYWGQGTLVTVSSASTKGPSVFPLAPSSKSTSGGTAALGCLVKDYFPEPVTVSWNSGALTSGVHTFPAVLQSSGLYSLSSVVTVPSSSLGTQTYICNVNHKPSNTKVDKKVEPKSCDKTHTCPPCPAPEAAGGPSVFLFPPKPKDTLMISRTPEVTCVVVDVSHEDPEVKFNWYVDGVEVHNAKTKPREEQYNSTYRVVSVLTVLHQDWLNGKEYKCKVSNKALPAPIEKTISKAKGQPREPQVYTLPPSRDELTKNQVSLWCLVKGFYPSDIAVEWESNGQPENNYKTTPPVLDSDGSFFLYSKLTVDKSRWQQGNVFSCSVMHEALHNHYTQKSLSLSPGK
light: QSALTQPASVSGSPGQSITISCTGTSSDVGGYNYVSWYQQHPGKAPKLMIYDVSNRPSGVSNRFSGSKSGNTASLTISGLQAEDEADYYCSSYTSSSTRVFGTGTKVTVLGQPKANPTVTLFPPSSEELQANKATLVCLISDFYPGAVTVAWKADGSPVKAGVETTKPSKQSNNKYAASSYLSLTPEQWKSHRSYSCQVTHEGSTVEKTVAPTECS
B2: Protein complex of CD3-binding antibody variable region 1-Fc x PD-L1 antibody (bispecific antibody)
chain 1: EVQLVESGGGLVQPGGSLRLSCAASGFSFTGYTMNWVRQAPGKGLEWVALINPYKGVTTYADSVKGRFTISRDNSKNTAYLQMNSLRAEDTAVYYCARSGYYGDSDWYFDVWGQGTLVTVSSDIQMTQSPSSLSASVGDRVTITCRASQDIRNYLNWYQQKPGKAPKLLIYYTSRLESGVPSRFSGSGSGTDYTLTISSLQPEDFATYYCQQGNTLPWTFGQGTKVEIKRT
chain 2: EVQLLESGGGLVQPGGSLRLSCAASGFTFSSYIMMWVRQAPGKGLEWVSSIYPSGGITFYADTVKGRFTISRDNSKNTLYLQMNSLRAEDTAVYYCARIKLGTVTTVDYWGQGTLVTVSSASTKGPSVFPLAPSSKSTSGGTAALGCLVKDYFPEPVTVSWNSGALTSGVHTFPAVLQSSGLYSLSSVVTVPSSSLGTQTYICNVNHKPSNTKVDKKV
chain 3: B1 light
B3: Protein complex of CD3-binding antibody variable region 2-Fc x PD-L1 antibody (bispecific antibody)
scFv-Fc: B1 scFv-Fc with C44G, C237Q
heavy: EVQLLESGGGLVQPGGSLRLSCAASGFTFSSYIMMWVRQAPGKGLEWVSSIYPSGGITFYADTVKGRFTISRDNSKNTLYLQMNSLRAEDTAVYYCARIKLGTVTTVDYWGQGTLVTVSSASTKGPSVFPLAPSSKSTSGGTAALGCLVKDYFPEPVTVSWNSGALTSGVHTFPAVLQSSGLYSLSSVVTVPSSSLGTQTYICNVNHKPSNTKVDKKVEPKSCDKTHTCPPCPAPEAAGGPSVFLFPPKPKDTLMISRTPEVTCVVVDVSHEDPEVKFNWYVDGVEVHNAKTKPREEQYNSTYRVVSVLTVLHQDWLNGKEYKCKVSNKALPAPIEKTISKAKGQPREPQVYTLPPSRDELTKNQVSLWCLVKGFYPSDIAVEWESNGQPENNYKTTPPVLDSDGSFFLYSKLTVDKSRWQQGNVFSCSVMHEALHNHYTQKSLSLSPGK
light: B1 light
B4: Protein complex of CD3-binding antibody variable region 4-Fc x PD-L1 antibody (bispecific antibody)
chain 1: B2 chain 1 with R72A, A79L, R175S
chain 2: B2 chain 2
chain 3: B1 light
B5: Protein complex of CD3-binding antibody variable region 5-Fc x PD-L1 antibody (bispecific antibody)
chain 1: B2 chain 1 with G44C, R72A, A79L, R175S, Q222C
chain 2: B2 chain 2
chain 3: B1 light
B6: Protein complex of CD3-binding antibody variable region 6-Fc x PD-L1 antibody (bispecific antibody)
chain 1: B2 chain 1 with R72D, A79L, R175S
chain 2: B2 chain 2
chain 3: B1 light
B7: Protein complex of CD3-binding antibody variable region 7-Fc x PD-L1 antibody (bispecific antibody)
chain 1: B2 chain 1 with R72Q, A79L, R175S
chain 2: B2 chain 2
chain 3: B1 light

biological target: T1, CD3 on T cells of human peripheral blood mononuclear cells (human, UniProt P07766 23-207); assay: cell-based or functional assay
T1 sequence (P07766 23-207): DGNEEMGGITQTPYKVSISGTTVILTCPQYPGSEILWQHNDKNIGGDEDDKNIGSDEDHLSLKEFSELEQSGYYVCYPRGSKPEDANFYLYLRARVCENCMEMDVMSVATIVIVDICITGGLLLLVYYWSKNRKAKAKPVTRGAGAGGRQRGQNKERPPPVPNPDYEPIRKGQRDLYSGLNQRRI

B1 was tested, and the “fold reduction of the maximum cytokine release level compared to the CD3-binding monoclonal antibody” value was 10.5 fold.

biological target: T1, CD3 on T cells of human peripheral …; assay: cell-based or functional assay; remark: another data set of the same source

Going from B2 to B3, the “Death of cancer cells EC50 (MDA-MB-231 + human PBMC, flow cytometry)” value (shortened to “Death of cancer cells EC50”) falls from 0.23 nM to 0.05 nM (4.6-fold).

Going from B1 to B4, the “Death of cancer cells EC50” value rises from 0.06 nM to 0.18 nM (3-fold).

Compared with B5, B6 is 19-fold higher in “Death of cancer cells EC50” value: 0.18 nM for the first, 3.5 nM for the second.

With B7 the “Death of cancer cells EC50” value was 2.26 nM.

First: B2
Second: B4
The “Death of cancer cells Emax (%)” value of the first is higher: 80% for the first, 79% for the second.

Going from B5 to B6, the “Death of cancer cells Emax (%)” value rises from 66% to 68%.

For B7, the “Death of cancer cells Emax (%)” value was 68%.

Compared with B2, B3 is 25-fold higher in “IFNγ release EC50” value: 0.1 nM for the first, 2.5 nM for the second.

Compared with B1, B4 is 310-fold higher in “IFNγ release EC50” value: 0.1 nM for the first, 31.2 nM for the second.

Compared with B5, B6 is 1.6-fold higher in “IFNγ release EC50” value: 10 nM for the first, 16.4 nM for the second.

In the case of B7, the “IFNγ release EC50” value is reported as 15.3 nM.

Compared with B2, B4 is 2.3-fold lower in “IFNγ release Maximum concentration” value: 6.1 ng/mL for the first, 2.6 ng/mL for the second.

B5 and B6 are within 1.5-fold of each other in “IFNγ release Maximum concentration” value: 4.4 ng/mL for the first, 5.1 ng/mL for the second.

In the case of B7, the “IFNγ release Maximum concentration” value is reported as 9.3 ng/mL.

biological target: PD-L1 on human cells (MDA-MB-231, MCF-7, 293T) (human, UniProt Q9NZQ7 19-290); assay: cell-based or functional assay
Sequence (Q9NZQ7 19-290): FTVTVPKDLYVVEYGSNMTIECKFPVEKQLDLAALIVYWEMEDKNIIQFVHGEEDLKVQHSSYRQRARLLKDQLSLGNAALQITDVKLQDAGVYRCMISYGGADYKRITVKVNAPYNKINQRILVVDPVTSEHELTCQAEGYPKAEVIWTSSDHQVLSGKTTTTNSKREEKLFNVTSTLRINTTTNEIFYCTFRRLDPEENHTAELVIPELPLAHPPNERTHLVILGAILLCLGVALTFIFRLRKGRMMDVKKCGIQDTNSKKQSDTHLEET

B3 was tested, and the “Tumor lysis EC50, 293T (normal cells, low PD-L1 expression) + human PBMC” value was 31.3 pM.

With B3 the “Tumor lysis EC50, MCF7 (low PD-L1 expression) + human PBMC” value was 150 pM.

With B3 the “Tumor lysis EC50, MDA-MB-231 (high PD-L1 expression) + human PBMC” value was 94.5 pM.

Reference: US20260258128A1 (MUSTBIO, published 2026)
